Experimental data reported in patent US20190015483A1 (CSL BEHRING RECOMBINANT FACILITY, published 2019).

Biological target: T1, recombinant Factor VIII (CSL627, rVIII-SingleChain) (Homo sapiens (Human), UniProt P00451 20-2351)
T1 construct: also called FVIII
T1 sequence: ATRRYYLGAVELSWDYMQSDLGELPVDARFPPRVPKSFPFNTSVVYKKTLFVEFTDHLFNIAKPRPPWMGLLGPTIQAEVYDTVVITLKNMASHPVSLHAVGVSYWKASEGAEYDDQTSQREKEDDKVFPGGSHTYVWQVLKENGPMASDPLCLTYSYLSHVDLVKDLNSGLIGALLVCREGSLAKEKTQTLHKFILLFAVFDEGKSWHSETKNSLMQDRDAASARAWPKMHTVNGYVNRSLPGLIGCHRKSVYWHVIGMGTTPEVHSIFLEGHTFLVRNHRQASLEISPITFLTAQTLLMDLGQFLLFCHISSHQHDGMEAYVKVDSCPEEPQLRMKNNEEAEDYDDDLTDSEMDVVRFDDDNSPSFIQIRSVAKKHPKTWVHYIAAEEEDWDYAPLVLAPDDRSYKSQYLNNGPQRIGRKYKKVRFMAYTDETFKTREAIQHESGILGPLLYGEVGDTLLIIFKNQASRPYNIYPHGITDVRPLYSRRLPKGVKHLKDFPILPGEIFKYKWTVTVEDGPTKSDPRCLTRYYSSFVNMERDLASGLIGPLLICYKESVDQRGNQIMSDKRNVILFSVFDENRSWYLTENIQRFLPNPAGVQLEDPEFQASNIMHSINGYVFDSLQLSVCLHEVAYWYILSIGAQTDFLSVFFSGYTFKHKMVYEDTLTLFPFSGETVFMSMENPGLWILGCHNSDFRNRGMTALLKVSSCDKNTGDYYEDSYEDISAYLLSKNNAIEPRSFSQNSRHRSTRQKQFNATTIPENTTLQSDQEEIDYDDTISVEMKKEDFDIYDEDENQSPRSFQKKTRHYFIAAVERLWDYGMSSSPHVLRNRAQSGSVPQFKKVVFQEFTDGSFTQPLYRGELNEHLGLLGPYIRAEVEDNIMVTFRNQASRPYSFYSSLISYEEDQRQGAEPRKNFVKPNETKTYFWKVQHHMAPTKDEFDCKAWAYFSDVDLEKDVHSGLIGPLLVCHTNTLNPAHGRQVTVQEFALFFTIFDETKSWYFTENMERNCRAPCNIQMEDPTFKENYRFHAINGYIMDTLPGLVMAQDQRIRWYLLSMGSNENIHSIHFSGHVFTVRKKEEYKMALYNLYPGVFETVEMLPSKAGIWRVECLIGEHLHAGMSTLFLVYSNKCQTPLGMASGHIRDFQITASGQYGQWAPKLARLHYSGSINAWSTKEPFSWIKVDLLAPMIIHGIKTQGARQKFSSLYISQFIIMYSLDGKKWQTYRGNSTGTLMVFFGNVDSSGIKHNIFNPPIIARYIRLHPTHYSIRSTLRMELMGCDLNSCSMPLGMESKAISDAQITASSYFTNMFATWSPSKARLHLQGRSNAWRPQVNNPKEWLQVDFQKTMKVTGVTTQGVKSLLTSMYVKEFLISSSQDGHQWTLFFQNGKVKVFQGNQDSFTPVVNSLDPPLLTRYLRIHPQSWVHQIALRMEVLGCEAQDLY
Test: SPR, anti-His capture, FVIII injected, 37 C
Procedure: Binding kinetics were investigated by surface plasmon resonance using a Biacore 4000 biosensor at 37° C. Each mutant was captured from cell culture medium to a density of 40-150 RU on a CM-5 sensor chip pre-immobilised with anti-His antibody (14,000 RU). In an initial screening study, FVIII was injected over the captured mutants for 5 minutes at 1 nM and dissociation monitored for 5 minutes.
All sensorgrams were double referenced by subtraction of signals from a reference spot (containing only immobilised anti His antibody) and from a blank injection. Binding kinetics were determined by fitting the double referenced sensorgrams to a 1:1 kinetic model.

Binder | binding result | Kd [nM] | koff [s⁻¹] | kon [M⁻¹ s⁻¹]
Hu-vWF[764-1270]-8His S766W-S806F (other) SLWCRPPMVKLVCPADNLRAEGLECTKTCQNYDLECMSMGCVFGCLCPPGMVRHENRCVALERCPCFHQGKEYAPGETVKIGCNTCVCRDRKWNCTDHVCDATCSTIGMAHYLTFDGLKYLFPGECQYVLVQDYCGSNPGTFRILVGNKGCSHPSVKCKKRVTILVEGGEIELFDGEVNVKRPMKDETHFEVVESGRYIILLLGKALSVVWDRHLSISVVLKQTYQEKVCGLCGNFDGIQNNDLTSSNLQVEEDPVDFGNSWKVSSQCADTRKVPLDSSPATCHNNIMKQTMVDSSCRILTSDVFQDCNKLVDPEPYLDVCIYDTCSCESIGDCACFCDTIAAYAHVCAQHGKVVTWRTATLCPQSCEERNLRENGYECEWRYNSCAPACQVTCQHPEPLACPVQCVEGCHAHCPPGKILDELLQTCVDPEDCPVCEVAGRRFASGKKVTLNPSDPEHCQICHCDVVNLTCEACQEPGGLVVPPTDAPVSPTTLYVEDISEPPLHDFHHHHHHHH | no binding | – | – | –
Hu-vWF[764-1270]-8His S766W-S806G (other) SLWCRPPMVKLVCPADNLRAEGLECTKTCQNYDLECMSMGCVGGCLCPPGMVRHENRCVALERCPCFHQGKEYAPGETVKIGCNTCVCRDRKWNCTDHVCDATCSTIGMAHYLTFDGLKYLFPGECQYVLVQDYCGSNPGTFRILVGNKGCSHPSVKCKKRVTILVEGGEIELFDGEVNVKRPMKDETHFEVVESGRYIILLLGKALSVVWDRHLSISVVLKQTYQEKVCGLCGNFDGIQNNDLTSSNLQVEEDPVDFGNSWKVSSQCADTRKVPLDSSPATCHNNIMKQTMVDSSCRILTSDVFQDCNKLVDPEPYLDVCIYDTCSCESIGDCACFCDTIAAYAHVCAQHGKVVTWRTATLCPQSCEERNLRENGYECEWRYNSCAPACQVTCQHPEPLACPVQCVEGCHAHCPPGKILDELLQTCVDPEDCPVCEVAGRRFASGKKVTLNPSDPEHCQICHCDVVNLTCEACQEPGGLVVPPTDAPVSPTTLYVEDISEPPLHDFHHHHHHHH | – | 0.245 | 0.00134 | 5.46e+06
Hu-vWF[764-1270]-8His S766W-S806H (other) SLWCRPPMVKLVCPADNLRAEGLECTKTCQNYDLECMSMGCVHGCLCPPGMVRHENRCVALERCPCFHQGKEYAPGETVKIGCNTCVCRDRKWNCTDHVCDATCSTIGMAHYLTFDGLKYLFPGECQYVLVQDYCGSNPGTFRILVGNKGCSHPSVKCKKRVTILVEGGEIELFDGEVNVKRPMKDETHFEVVESGRYIILLLGKALSVVWDRHLSISVVLKQTYQEKVCGLCGNFDGIQNNDLTSSNLQVEEDPVDFGNSWKVSSQCADTRKVPLDSSPATCHNNIMKQTMVDSSCRILTSDVFQDCNKLVDPEPYLDVCIYDTCSCESIGDCACFCDTIAAYAHVCAQHGKVVTWRTATLCPQSCEERNLRENGYECEWRYNSCAPACQVTCQHPEPLACPVQCVEGCHAHCPPGKILDELLQTCVDPEDCPVCEVAGRRFASGKKVTLNPSDPEHCQICHCDVVNLTCEACQEPGGLVVPPTDAPVSPTTLYVEDISEPPLHDFHHHHHHHH | – | 0.093 | 0.000828 | 8.9e+06
Hu-vWF[764-1270]-8His S766W-S806L (other) SLWCRPPMVKLVCPADNLRAEGLECTKTCQNYDLECMSMGCVLGCLCPPGMVRHENRCVALERCPCFHQGKEYAPGETVKIGCNTCVCRDRKWNCTDHVCDATCSTIGMAHYLTFDGLKYLFPGECQYVLVQDYCGSNPGTFRILVGNKGCSHPSVKCKKRVTILVEGGEIELFDGEVNVKRPMKDETHFEVVESGRYIILLLGKALSVVWDRHLSISVVLKQTYQEKVCGLCGNFDGIQNNDLTSSNLQVEEDPVDFGNSWKVSSQCADTRKVPLDSSPATCHNNIMKQTMVDSSCRILTSDVFQDCNKLVDPEPYLDVCIYDTCSCESIGDCACFCDTIAAYAHVCAQHGKVVTWRTATLCPQSCEERNLRENGYECEWRYNSCAPACQVTCQHPEPLACPVQCVEGCHAHCPPGKILDELLQTCVDPEDCPVCEVAGRRFASGKKVTLNPSDPEHCQICHCDVVNLTCEACQEPGGLVVPPTDAPVSPTTLYVEDISEPPLHDFHHHHHHHH | no binding | – | – | –
Hu-vWF[764-1270]-8His S766W-S806P (other) SLWCRPPMVKLVCPADNLRAEGLECTKTCQNYDLECMSMGCVPGCLCPPGMVRHENRCVALERCPCFHQGKEYAPGETVKIGCNTCVCRDRKWNCTDHVCDATCSTIGMAHYLTFDGLKYLFPGECQYVLVQDYCGSNPGTFRILVGNKGCSHPSVKCKKRVTILVEGGEIELFDGEVNVKRPMKDETHFEVVESGRYIILLLGKALSVVWDRHLSISVVLKQTYQEKVCGLCGNFDGIQNNDLTSSNLQVEEDPVDFGNSWKVSSQCADTRKVPLDSSPATCHNNIMKQTMVDSSCRILTSDVFQDCNKLVDPEPYLDVCIYDTCSCESIGDCACFCDTIAAYAHVCAQHGKVVTWRTATLCPQSCEERNLRENGYECEWRYNSCAPACQVTCQHPEPLACPVQCVEGCHAHCPPGKILDELLQTCVDPEDCPVCEVAGRRFASGKKVTLNPSDPEHCQICHCDVVNLTCEACQEPGGLVVPPTDAPVSPTTLYVEDISEPPLHDFHHHHHHHH | – | 0.133 | 0.000566 | 4.26e+06
Hu-vWF[764-1270]-8His S766W-S806I (other) SLWCRPPMVKLVCPADNLRAEGLECTKTCQNYDLECMSMGCVIGCLCPPGMVRHENRCVALERCPCFHQGKEYAPGETVKIGCNTCVCRDRKWNCTDHVCDATCSTIGMAHYLTFDGLKYLFPGECQYVLVQDYCGSNPGTFRILVGNKGCSHPSVKCKKRVTILVEGGEIELFDGEVNVKRPMKDETHFEVVESGRYIILLLGKALSVVWDRHLSISVVLKQTYQEKVCGLCGNFDGIQNNDLTSSNLQVEEDPVDFGNSWKVSSQCADTRKVPLDSSPATCHNNIMKQTMVDSSCRILTSDVFQDCNKLVDPEPYLDVCIYDTCSCESIGDCACFCDTIAAYAHVCAQHGKVVTWRTATLCPQSCEERNLRENGYECEWRYNSCAPACQVTCQHPEPLACPVQCVEGCHAHCPPGKILDELLQTCVDPEDCPVCEVAGRRFASGKKVTLNPSDPEHCQICHCDVVNLTCEACQEPGGLVVPPTDAPVSPTTLYVEDISEPPLHDFHHHHHHHH | – | 0.283 | 0.000447 | 1.58e+06
Hu-vWF[764-1270]-8His S766W-S806N (other) SLWCRPPMVKLVCPADNLRAEGLECTKTCQNYDLECMSMGCVNGCLCPPGMVRHENRCVALERCPCFHQGKEYAPGETVKIGCNTCVCRDRKWNCTDHVCDATCSTIGMAHYLTFDGLKYLFPGECQYVLVQDYCGSNPGTFRILVGNKGCSHPSVKCKKRVTILVEGGEIELFDGEVNVKRPMKDETHFEVVESGRYIILLLGKALSVVWDRHLSISVVLKQTYQEKVCGLCGNFDGIQNNDLTSSNLQVEEDPVDFGNSWKVSSQCADTRKVPLDSSPATCHNNIMKQTMVDSSCRILTSDVFQDCNKLVDPEPYLDVCIYDTCSCESIGDCACFCDTIAAYAHVCAQHGKVVTWRTATLCPQSCEERNLRENGYECEWRYNSCAPACQVTCQHPEPLACPVQCVEGCHAHCPPGKILDELLQTCVDPEDCPVCEVAGRRFASGKKVTLNPSDPEHCQICHCDVVNLTCEACQEPGGLVVPPTDAPVSPTTLYVEDISEPPLHDFHHHHHHHH | – | 0.152 | 0.000585 | 3.84e+06
Hu-vWF[764-1270]-8His S766W-S806M (other) SLWCRPPMVKLVCPADNLRAEGLECTKTCQNYDLECMSMGCVMGCLCPPGMVRHENRCVALERCPCFHQGKEYAPGETVKIGCNTCVCRDRKWNCTDHVCDATCSTIGMAHYLTFDGLKYLFPGECQYVLVQDYCGSNPGTFRILVGNKGCSHPSVKCKKRVTILVEGGEIELFDGEVNVKRPMKDETHFEVVESGRYIILLLGKALSVVWDRHLSISVVLKQTYQEKVCGLCGNFDGIQNNDLTSSNLQVEEDPVDFGNSWKVSSQCADTRKVPLDSSPATCHNNIMKQTMVDSSCRILTSDVFQDCNKLVDPEPYLDVCIYDTCSCESIGDCACFCDTIAAYAHVCAQHGKVVTWRTATLCPQSCEERNLRENGYECEWRYNSCAPACQVTCQHPEPLACPVQCVEGCHAHCPPGKILDELLQTCVDPEDCPVCEVAGRRFASGKKVTLNPSDPEHCQICHCDVVNLTCEACQEPGGLVVPPTDAPVSPTTLYVEDISEPPLHDFHHHHHHHH | – | 0.425 | 0.000872 | 2.05e+06
